doi:10.1101/2025.07.08.663435 (bioRxiv, 2025)

T1: SMCHD1 ATPase domain (UniProt A6NHR9 25-581)
T1 sequence: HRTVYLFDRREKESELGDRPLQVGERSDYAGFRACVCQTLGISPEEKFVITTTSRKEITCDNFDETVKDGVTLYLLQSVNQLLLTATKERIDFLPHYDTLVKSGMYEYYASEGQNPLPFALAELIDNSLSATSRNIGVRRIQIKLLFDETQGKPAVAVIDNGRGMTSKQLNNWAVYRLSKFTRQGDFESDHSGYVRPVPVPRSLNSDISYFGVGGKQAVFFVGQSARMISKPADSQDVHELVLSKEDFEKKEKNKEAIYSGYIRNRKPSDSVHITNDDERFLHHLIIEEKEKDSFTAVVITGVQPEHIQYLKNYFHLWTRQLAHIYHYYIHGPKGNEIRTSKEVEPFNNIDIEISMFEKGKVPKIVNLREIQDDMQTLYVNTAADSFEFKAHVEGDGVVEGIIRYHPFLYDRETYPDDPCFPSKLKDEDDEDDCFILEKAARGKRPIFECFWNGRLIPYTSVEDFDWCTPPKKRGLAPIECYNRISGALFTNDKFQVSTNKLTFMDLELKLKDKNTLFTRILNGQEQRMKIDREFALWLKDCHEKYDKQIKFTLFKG

B1: FAM 37 bp duplex (dsDNA)
DNA 1: CCTAGGCTACACCTACTCTTTGTAAGAATTAAGCTTC
DNA 2: GAAGCTTAATTCTTACAAAGAGTAGGTGTAGCCTAGG
B2: SMCHD1^△CC, truncated SMCHD1 without both coiled-coil domains, purified (natural protein, human, UniProt A6NHR9 1-2005, looked up)
chain: MAAADGGGPGGASVGTEEDGGGVGHRTVYLFDRREKESELGDRPLQVGERSDYAGFRACVCQTLGISPEEKFVITTTSRKEITCDNFDETVKDGVTLYLLQSVNQLLLTATKERIDFLPHYDTLVKSGMYEYYASEGQNPLPFALAELIDNSLSATSRNIGVRRIQIKLLFDETQGKPAVAVIDNGRGMTSKQLNNWAVYRLSKFTRQGDFESDHSGYVRPVPVPRSLNSDISYFGVGGKQAVFFVGQSARMISKPADSQDVHELVLSKEDFEKKEKNKEAIYSGYIRNRKPSDSVHITNDDERFLHHLIIEEKEKDSFTAVVITGVQPEHIQYLKNYFHLWTRQLAHIYHYYIHGPKGNEIRTSKEVEPFNNIDIEISMFEKGKVPKIVNLREIQDDMQTLYVNTAADSFEFKAHVEGDGVVEGIIRYHPFLYDRETYPDDPCFPSKLKDEDDEDDCFILEKAARGKRPIFECFWNGRLIPYTSVEDFDWCTPPKKRGLAPIECYNRISGALFTNDKFQVSTNKLTFMDLELKLKDKNTLFTRILNGQEQRMKIDREFALWLKDCHEKYDKQIKFTLFKGVITRPDLPSKKQGPWATYAAIEWDGKIYKAGQLVKTIKTLPLFYGSIVRFFLYGDHDGEVYATGGEVQIAMEPQALYDEVRTVPIAKLDRTVAEKAVKKYVEDEMARLPDRLSVTWPEGDELLPNEVRPAGTPIGALRIEILNKKGEAMQKLPGTSHGGSKKLLVELKVILHSSSGNKEIISHISQHGGKWPYWFKKMENIQKLGNYTLKLQVVLNESNADTYAGRPLPSKAIKFSVKEGKPEKFSFGLLDLPFRVGVPFNIPLEFQDEFGHTSQLVTDIQPVLEASGLSLHYEEITKGPNCVIRGVTAKGPVNSCQGKNYNLKVTLPGLKEDSQILKIRLLPGHPRRLKVKPDSEILVIENGTAFPFQVEVLDESDNITAQPKLIVHCKFSGAPNLPVYVVDCSSSGTSILTGSAIQVQNIKKDQTLKARIEIPSCKDVAPVEKTIKLLPSSHVARLQIFSVEGQKAIQIKHQDEVNWIAGDIMHNLIFQMYDEGEREINITSALAEKIKVNWTPEINKEHLLQGLLPDVQVPTSVKDMRYCQVSFQDDHVSLESAFTVRPLPDEPKHLKCEMKGGKTVQMGQELQGEVVIIITDQYGNQIQAFSPSSLSSLSIAGVGLDSSNLKTTFQENTQSISVRGIKFIPGPPGNKDLCFTWREFSDFIRVQLISGPPAKLLLIDWPELKESIPVINGRDLQNPIIVQLCDQWDNPAPVQHVKISLTKASNLKLMPSNQQHKTDEKGRANLGVFSVFAPRGEHTLQVKAIYNKSIIEGPIIKLMILPDPEKPVRLNVKYDKDASFLAGGLFTDFMISVISEDDSIIKNINPARISMKMWKLSTSGNRPPANAETFSCNKIKDNDKEDGCFYFRDKVIPNKVGTYCIQFGFMMDKTNILNSEQVIVEVLPNQPVKLVPKIKPPTPAVSNVRSVASRTLVRDLHLSITDDYDNHTGIDLVGTIIATIKGSNEEDTDTPLFIGKVRTLEFPFVNGSAEIMSLVLAESSPGRDSTEYFIVFEPRLPLLSRTLEPYILPFMFYNDVQQVPHIEALLKRKLSEQEELKKKPRRSCTLPNYTKGSGDVLGKIAHLAQIEDDRAAMVISWHLASDMDCVVTLTTDAARRIYDETQGRQQVLPLDSIYKKTLPDWKRSLPHFRNGKLYFKPIGDPVFARDLLTFPDNVEHCETVFGMLLGDTIILDNLDAANHYRKEVVKITHCPTLLTRDGDRIRSNGKFGGLQNKAPPMDKLRGMVFGAPVPKQCEEKLGMTPIRKCNDSLRHSPKVETTDCPVPPKRMRREATRQNRIITKTDV

Columns and labels:
SMCHD1 ATPase domain = target: T1, SMCHD1 ATPase domain; experiment: EMSA
atomic force microscopy = target: the molecule itself; experiment: atomic force microscopy

| Binder | binding result (SMCHD1 ATPase domain) | binding result (atomic force microscopy) |
| --- | --- | --- |
| B1 | binds |  |
| B2 |  | binds |
